Measured values reported in patent US20240247069A1 (Regeneron, published 2024).

Columns and labels:
[1] = target: T1, human FGFR3b-ecto.mmH (human, UniProt P22607 23-806); test: Biacore SPR, 25 C, mmh-tagged FGFR3
T1 construct: also called hFGFR3b (mmh); hFGFR3b-mmh; not shown: mmh tag

[2] = target: T2, mouse FGFR3b-ecto.mmH (mouse, UniProt Q61851 21-801); test: Biacore SPR, 25 C, mmh-tagged FGFR3
T2 construct: also called moFGFR3b (mmh); monomeric mouse FGFR3b; not shown: mmh tag
T2 sequence (Q61851 other isoform, or with tags, fused parts or gaps): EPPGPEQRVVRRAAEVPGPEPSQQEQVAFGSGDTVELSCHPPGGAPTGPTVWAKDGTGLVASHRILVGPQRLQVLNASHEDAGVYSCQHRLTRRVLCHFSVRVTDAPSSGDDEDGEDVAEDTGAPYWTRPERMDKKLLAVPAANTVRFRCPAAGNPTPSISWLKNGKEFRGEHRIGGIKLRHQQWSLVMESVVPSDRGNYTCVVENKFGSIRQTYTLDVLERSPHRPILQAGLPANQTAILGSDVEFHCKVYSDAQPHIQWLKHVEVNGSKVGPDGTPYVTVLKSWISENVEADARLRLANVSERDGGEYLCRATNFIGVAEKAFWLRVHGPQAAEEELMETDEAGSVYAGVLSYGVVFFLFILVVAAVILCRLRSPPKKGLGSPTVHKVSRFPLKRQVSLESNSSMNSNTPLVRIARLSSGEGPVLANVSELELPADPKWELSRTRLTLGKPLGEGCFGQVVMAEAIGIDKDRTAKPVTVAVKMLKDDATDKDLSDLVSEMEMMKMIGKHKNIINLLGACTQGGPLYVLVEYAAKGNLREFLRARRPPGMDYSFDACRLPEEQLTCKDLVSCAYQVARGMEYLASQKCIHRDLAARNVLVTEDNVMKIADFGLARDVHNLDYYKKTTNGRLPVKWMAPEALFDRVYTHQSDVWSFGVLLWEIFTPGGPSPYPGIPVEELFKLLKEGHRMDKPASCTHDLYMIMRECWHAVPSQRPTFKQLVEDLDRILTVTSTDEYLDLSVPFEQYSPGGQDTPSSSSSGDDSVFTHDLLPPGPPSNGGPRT

T1 sequence (P22607 other isoform, or with tags, fused parts or gaps): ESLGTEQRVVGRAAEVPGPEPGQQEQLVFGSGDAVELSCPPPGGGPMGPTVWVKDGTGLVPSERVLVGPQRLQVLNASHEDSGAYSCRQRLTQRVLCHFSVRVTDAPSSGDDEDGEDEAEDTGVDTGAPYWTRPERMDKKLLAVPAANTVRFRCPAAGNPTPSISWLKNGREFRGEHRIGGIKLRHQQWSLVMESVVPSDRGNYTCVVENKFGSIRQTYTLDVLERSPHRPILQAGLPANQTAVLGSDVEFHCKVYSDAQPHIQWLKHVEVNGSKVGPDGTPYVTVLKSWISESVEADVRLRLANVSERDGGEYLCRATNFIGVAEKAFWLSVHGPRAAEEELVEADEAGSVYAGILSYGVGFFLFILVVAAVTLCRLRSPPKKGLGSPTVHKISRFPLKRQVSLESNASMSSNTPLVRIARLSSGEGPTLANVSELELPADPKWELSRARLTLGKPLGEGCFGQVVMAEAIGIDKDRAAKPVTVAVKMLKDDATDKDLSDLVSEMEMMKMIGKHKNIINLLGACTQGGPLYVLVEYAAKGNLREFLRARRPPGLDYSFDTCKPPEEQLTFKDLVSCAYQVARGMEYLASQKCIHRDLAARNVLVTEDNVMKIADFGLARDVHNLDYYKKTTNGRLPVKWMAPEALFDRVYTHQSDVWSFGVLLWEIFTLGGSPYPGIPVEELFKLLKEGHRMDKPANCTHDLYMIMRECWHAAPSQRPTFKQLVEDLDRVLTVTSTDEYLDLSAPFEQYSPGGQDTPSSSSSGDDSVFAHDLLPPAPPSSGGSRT

B1: H4H30063P (antibody, V domains shown)
VH: QVQLQESGPGLVKPSETLSLTCTVSGDSINSYFWSWIRQLPGKELEWIGHIYSSGSTRYNPSLQSRVTISIDTSKNQFSLKLSSVTAADTAVYYCARGASAVDYWGQGTLVTVSS
VL: EIVLTQSPGTLSLSPGERATLSCRTSQSISSGYLAWYQQKPGQAPRLLIYGASRRATGIPDRFSGSGSGTDFTLTISRLEPEDFVVYYCQQYGSSPYTFGQGTKLEIKR
With B1 the Kd [1] was 1.8 nM and the Kd [2] was 1.27 nM.
